# Experimental data as given in paper PMC11549327 (Nature Communications, 2024).
# B1: E. coli ClpP-His6 (tetradecamer) (enzyme)
# chain: not shown
# Molecular target: the molecule itself
# Test: cryo-EM structure
protein,measurement,value
B1,stoichiometry N,14
